In US6710165B2, “IgE-dependent histamine-releasing factor-binding peptides” (priority 2000, dated 2004):

Experiments:
Assay type in all cases: cell-based
RBL-2H3 cells = assay: Intracellular Na+ concentration (sodium green fluorescence); details: IgE-sensitized RBL-2H3 cells, HRF 10˜20 μg/ml
Experimental: RBL-2H3 cells were loaded onto 24-well plate at 3.0×10^5˜1×10^6 cells/ml and cultivated at 37° for 18 hours. Hams F-12 culture (phenol red or serum-free 2 mM sodium bicarbonate and 10 mM HEPES, pH 7.3) was mixed with sodium green tetracetate dye (Molecular Probes, Eugene, Oreg.) at a final concentration of […] and the mixture was loaded onto the cells (Amorino and Fox, 1995). The cells were sensitized with 0.2 μg/ml of rat IgE (Serotec) for 45˜60 minutes and then, cultivated at room temperature for about 20˜60 minutes and washed three times with F-12 medium. Subsequently, thereto was added HRF (10˜20 μg/ml) in histamine releasing buffer and then, fluorescence was measured with microtiter reader (FL600, Bio-tek Instruments, Inc., Winooski, Vt.) at 485/530 nm for 15 minutes. The mixed solution of Na^+ and K^+ at an appropriate concentration was measured using gramicidin D (Sigma) as calibration (Amorino and Fox, 1995).

(Na,K)ATPase = assay: Inhibitory activity on (Na,K)ATPase (86Rb+ tracer, K+-uptake); details: 10˜20 μg/ml HRF
Experimental: RBL-2H3 cells were cultivated and sensitized according to the same procedures as in Example 6 and then, washed three times with Krebs-Ringer buffer (KRP, 140 mM NaCl, 5 mM KCl, 10 mM Na2HPO4, 1 mM MgSO4, 1.4 mM CaCl2, 2.5 mM glucose, pH 7.4). Subsequently, the cells were incubated at 37° C. for 15 minutes and then, thereto was added 0.1% bovine serum albumin (BSA)-containing KRP buffer comprising 1 mM ouabain. ^86Rb^+([…], NEN) was used as a tracer and the cells were cultivated for 5˜10 minutes. 10˜20 µg/ml HRF was added thereto and K^+-uptake was measured for 5, 10 and 15 minutes, respectively.

PC12 cells [1] = assay: [3H]-dopamine release by HRF
Experimental: It was examined whether or not HRF functions as the inhibitor of (Na,K)ATPase enzyme to stimulate neurotransmitters release. For this purpose, HRF was added to the culture solution of PC12 cells (Abu-Raya, et al., 1999) and then, changes in [^3H]-labeled dopamine release induced in basal and K^+-depolarized state by addition of HRF were measured. PC12 cells from passage numbers 5 to 15 were cultured in RPMI-1640 medium containing 10% horse serum, 5% fetal bovine serum, penicillin (100 U/ml) and streptomycin (100 μg/ml) with the supply of 5% CO2 at 37° C.
To measure [^3H]-dopamine release, one day prior to the experiment, the cells ([…]) were cultured in 12-well dish coated with poly-L-lysine (10 μg/ml). The fresh medium containing [^3H]-dopamine (0.5 μCi/ml) was loaded thereto and then, the cells were further cultured at 37° C. for 3 hours. They were washed 2 or 3 times with 1 ml of PBS(1×) per well. To Krebs Ringer (KR) buffer (125 mM NaCl, 5 mM KCl, 2 mM CaCl2, 10 mM HEPES, 1.2 mM MgSO4, 1.2 mM KH2PO4, 6 mM glucose, 5 mM NaHCO3), ascorbic acid (0.2 mg/ml), pargyline (0.6 mg/ml) and despiramine (2 μM) were added. Each 1 ml of the mixture was loaded with HRF and the reaction was proceeded at 37° C. for 20 minutes. The release in the depolarization state was measured in KR buffer containing 50 mM KCl, and in Ca^2+-free medium, was measured in KR buffer prepared by removal of CaCl2 with the addition of 0.5 mM EGTA.
Upon completion of the reaction, the radioactivity of the released dopamine was measured after centrifuging the culture solution at 4° C., 1,000×g for 10 minutes. The cells were solubilized with 0.5 N NaOH and then, the radioactivity within the tissue was measured. The release rate (%) of dopamine was calculated by [radioactivity of the supernatant/(radioactivity of the supernatant+radioactivity within the tissue)×100].
As compared with the increase in basal release, the increase in K^+-stimulated release was shifted to left, but the extent thereof was relatively small.

PC12 cells [2] = assay: Inhibition of HRF-stimulated dopamine release by HRF-binding peptide; details: 15 μg/ml of HRF
Experimental: In order to confirm whether the peptides blocking histamine release by HRF also block neurotransmitters release in nerve cells, the peptide of SEQ ID No. 14 (p2) was tested for its effects on dopamine release stimulated by HRF according to the substantially same procedure as in Example 16.

B1: HRF: recombinant full-length rat HRF overexpressed in E. coli; protein consisting of 172 amino acids (protein)
chain: MIIYRDLISHDELFSDIYKIREIADGLCLEVEGKMVSRTEGAIDDSLIGGNASAEGPEGEGTESTVVTGVDIVMNHHLQETSFTKEAYKKYIKDYMKSLKGKLEEQKPERVKPFMTGAAEQIKHILANFNNYQFFIGENMNPDGMVALLDYREDGVTPFMIFFKDGLEMEKC
modifications: left off: small tags and cut ends
notes: recombinant full-length rat HRF overexpressed in E. coli; protein consisting of 172 amino acids
effect on intracellular Na+ concentration (RBL-2H3 cells): increased the intracellular Na^+ concentration | decrease of (Na,K)ATPase activity ((Na,K)ATPase; K+-uptake measured for 5 minutes): 10.8% | decrease of (Na,K)ATPase activity ((Na,K)ATPase; K+-uptake measured for 10 minutes): 40.4% | decrease of (Na,K)ATPase activity ((Na,K)ATPase; K+-uptake measured for 15 minutes): 50.7% | HRF concentration at which dopamine release was steeply increased and the cells detached and reached to death (PC12 cells [1]): ≥ 30 µg | K+-stimulated dopamine release in depolarization (PC12 cells [1]; 50 mM KCl): dose-dependently increased K^+-stimulated dopamine release | basal release of dopamine (PC12 cells [1]; basal state): dose-dependently increased the basal release of dopamine | dopamine release at HRF 10 μg (PC12 cells [1]; basal, HRF 10 μg): increased to the extent similar to the K^+-stimulated release in depolarization | increase of dopamine release (PC12 cells [2]): about 110%
